Measurements: the supplement of paper PMC12667976

B1: library; numbered along this chain (parent)
chain: MATDAALRRLLRLHRTEIAVAVDSAFPLLHALADHDVVPEDKFQETLHLKEKEGCPQAFHALLSWLLTQDSTAILDFWRVLFKDYNLERYGRLQPILDSFPKDVDLSQPRKGRKPPAVPKALVPPPRLPTKRKASEEARAAAPAALTPRGTASPGSQLKAKPPKKPESSAEQQRLPLGNGIQTMSASVQRAVAMSSGDVPGARGAVEGILIQQVFESGGSKKCIQVGGEFYTPSKFEDSGSGKNKARSSSGPKPLVRAKGAQGAAPGGGEARLGQQGSVPAPLALPSDPQLHQKNEDECAVCRDGGELICCDGCPRAFHLACLSPPLREIPSGTWRCSSCLQATVQEVQPRAEEPRPQEPPVETPLPPGLRSAGEEVRGPPGEPLAGMDTTLVYKHLPAPPSAAPLPGLDSSALHPLLCVGPEGQQNLAPGARCGVCGDGTDVLRCTHCAAAFHWRCHFPAGTSRPGTGLRCRSCSGDVTPAPVEGVLAPSPARLAPGPAKDDTASHEPALHRDDLESLLSEHTFDGILQWAIQSMARPAAPFPS

Variants of: B1
Assay: AIRE transcriptional activation functional score (insulin promoter-GFP; nonsense median 0, synonymous median 1) (normalised score); higher = higher AIRE activity (more reporter activation)
Conditions: with insulin promoter-GFP reporter in HEK293
Experimental: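 Deep mutational scan of full-length human AIRE (codon-optimized cDNA, DT-POPCode NNN libraries over three regions) integrated at a Bxb1 landing pad in HEK293 cells carrying an insulin core promoter-GFP reporter at a Flp-In site. Cells were sorted for the top 10% GFP about 14 days after transfection. Variant frequency log-ratios (select vs non-select, TileSeq) were rescaled so that the nonsense median is 0 and the synonymous median is 1, then averaged over biological replicates.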

AIRE transcriptional activation functional score of substitutions, site by site:
K159: I 1.4 | L 1.18 | M 0.791 | N 1.33 | P 0.44 | Q 0.00224 | R 1.48 | S 0.905 | T 1.05 | V 1.06 | W 1.36 | Y 1.33
A160: C 1.05 | D 0.974 | E -0.0286 | F 1.12 | G 0.964 | H 0.574 | I 0.857 | K -0.392 | L 0.749 | M 0.0796 | N 0.242 | P -0.0016 | Q -0.113 | R 1.01 | S 1.14 | T 0.43 | V 1.38 | W 1.82 | Y 1.08
K161: A 0.612 | C 1.56 | D 1.13 | E 0.442 | F 1.69 | G 1.56 | H 0.866 | I 1.27 | L 1.14 | M 0.88 | N 0.888 | P 0.742 | Q 0.799 | R 1.55 | S 0.458 | T 0.898 | V 1.11 | W 0.29 | Y 0.674
P162: A 0.796 | C 1.41 | E 0.27 | F 1.37 | G 1.1 | H 2.88 | I 1.97 | L 1.04 | M 0.548 | N -1.7 | Q 1.54 | R 0.224 | S 0.476 | T 0.633 | V 0.356 | W 1.26 | Y 2.9
P163: A 0.36 | C 1.48 | D -0.123 | E 0.136 | F 0.944 | G 0.723 | H 0.674 | I 1.05 | K 1.29 | L 0.899 | M 0.889 | N 1.73 | Q 1.05 | R 0.66 | S 1.3 | T 0.923 | V 0.445 | W 2.35 | Y 1.53
K164: A 1.17 | C 0.129 | D -0.844 | E 0.857 | F 1.41 | G 1.83 | H 1.27 | I 0.719 | L 1.14 | M 1.88 | N 1.52 | P 1.62 | Q 0.909 | R 1.85 | S 1.22 | T 0.821 | V 0.666 | W 1.33 | Y 0.624
K165: A -0.0692 | C 0.37 | D 0.206 | E 1.01 | F 1.23 | G 0.47 | H 1.16 | I 2.29 | L 0.369 | M 1.15 | N 0.909 | P -0.251 | Q 0.596 | R 0.872 | S 0.597 | T -0.814 | V 0.921 | W 1.06 | Y 0.91
P166: A 1.16 | C 1.43 | D 0.983 | E -0.713 | F 1.94 | G 1.61 | H 1.95 | I 1.24 | K -0.231 | L 0.95 | M 1.41 | N 1.41 | Q 1.16 | R 0.947 | S 0.939 | T 1.36 | V 0.921 | W -0.356 | Y 1.19
E167: A 0.894 | C 1.33 | D 1.12 | F 1.89 | G 1.02 | H -0.185 | I 1.19 | K 0.721 | L 1.76 | M 1.68 | N 1.8 | P 0.414 | Q 0.862 | R 0.328 | S 0.898 | T 0.707 | V 1.18 | W 2.34 | Y 2.17
S168: A 0.888 | C 1 | D 0.307 | E 0.606 | F 1.44
